{
  "source": "patent US5354676A",
  "about": "“Recombinant modified thermostable NAD-dependent dehydrogenases and process for their production” (The University of Bristol, priority 1989, dated 1994)",
  "proteins": {"B1": {"name": "Bacillus stearothermophilus NAD-dependent L-lactate dehydrogenase, wild type (WT) (Geobacillus stearothermophilus) (protein)", "chain": "MKNNGGARVVVIGAGFVGASYVFALMNQGIADEIVLIDANESKAIGDAMDFNHGKVFAPKPVDIWHGDYDDCRDADLVVICAGANQKPGETRLDLVDKNIAIFRSIVESVMASGFQGLFLVATNPVDILTYATWKFSGLPHERVIGSGTILDTARFRFLLGEYFSVAPQNVHAYIIGEHGDTELPVWSQAYIGVMPIRKLVESKGEEAQKDLERIFVNVRDAAYQIIEKKGATYYGIAMGLARVTRAILHNENAILTVSAYLDGLYGERDVYIGVPAVINRNGIREVIEIELNDDEKNRFHHSAATLKSVLARAFTR", "notes": "made in house; host or cells: E. coli"}, "B2": {"name": "Bacillus stearothermophilus L-lactate dehydrogenase variant GG (235-6 AA→GG) (Geobacillus stearothermophilus; A222G/A223G) (protein)", "chain": "B1 chain with A222G, A223G"}, "B3": {"name": "Bacillus stearothermophilus L-lactate dehydrogenase variant MVS (102-5 QKP→MVS) (Geobacillus stearothermophilus; K87V/P88S/Q86M) (protein)", "chain": "B1 chain with Q86M, K87V, P88S", "notes": "made in house; host or cells: E. coli TG2, vector pKK223-3"}, "B4": {"name": "Bacillus stearothermophilus L-lactate dehydrogenase variant MVS/GG (102-5 QKP→MVS and 235-6 AA→GG) (Geobacillus stearothermophilus; A222G/A223G/K87V/P88S/Q86M) (protein)", "chain": "B1 chain with Q86M, K87V, P88S, A222G, A223G", "notes": "as for B3"}},
  "assay_in_all_cases": "purified protein, by the assay type",
  "key": {"[1]": {"substrate": "NC(=O)C1=CN([C@@H]2O[C@H](COP(=O)(O)OP(=O)(O)OC[C@H]3O[C@@H](n4cnc5c(N)ncnc54)[C@H](O)[C@@H]3O)[C@@H](O)[C@H]2O)C=CC1", "assay_type": "biochemical, Bacillus stearothermophilus", "conditions": "other: WT; in the presence of 0.5 mM pyruvate; pH 6.0", "experimental": "(§1) Steady-state reaction rates were determined by following the change in A340 due to the consumption of NADH. […] The buffer for all experiments was 100rmM triethanolamine-HC1/NaOH,pH 6."}, "[2]": {"substrate": "CC(=O)C(=O)O", "assay_type": "biochemical, Bacillus stearothermophilus", "conditions": "other: WT, No FBP, pH 6", "experimental": "as §1"}, "[3]": {"substrate": "NC(=O)C1=CN([C@@H]2O[C@H](COP(=O)(O)OP(=O)(O)OC[C@H]3O[C@@H](n4cnc5c(N)ncnc54)[C@H](O)[C@@H]3O)[C@@H](O)[C@H]2O)C=CC1", "conditions": "other: GG; in the presence of 0.5 mM pyruvate; pH 6.0", "experimental": "as §1"}, "[4]": {"substrate": "NC(=O)C1=CN([C@@H]2O[C@H](COP(=O)(O)OP(=O)(O)OC[C@H]3O[C@@H](n4cnc5c(N)ncnc54)[C@H](O)[C@@H]3O)[C@@H](O)[C@H]2O)C=CC1", "assay_type": "biochemical", "conditions": "in the presence of 0.5 mM pyruvate, pH 6.0", "experimental": "as §1"}, "[5]": {"substrate": "CC(=O)C(=O)O", "assay_type": "biochemical", "conditions": "other: MVS, No FBP, pH 6", "experimental": "as §1"}},
  "note": "Positions count from the first letter of the chain named. In names and notes the source's numbering stands.",
  "data": [
    {"protein": "B1", "values": [
      {"measurement": "Km", "setting": "[1]", "value": 18, "unit": "µM"},
      {"measurement": "Km", "setting": "[2]", "value": 3000, "unit": "µM"},
      {"measurement": "kcat/Km", "setting": "[2]", "value": 83000, "unit": "M⁻¹ s⁻¹"}
    ]},
    {"protein": "B2", "values": [
      {"measurement": "Km", "setting": "[3]", "value": 18, "unit": "µM"}
    ]},
    {"protein": "B3", "values": [
      {"measurement": "Km", "setting": "[4]; other: MVS", "value": 14.5, "unit": "µM"},
      {"measurement": "Km", "setting": "[5]", "value": 15000, "unit": "µM"},
      {"measurement": "kcat", "setting": "[5]", "value": 61, "unit": "s⁻¹"},
      {"measurement": "kcat/Km", "setting": "[5]", "value": 4100, "unit": "M⁻¹ s⁻¹"}
    ]},
    {"protein": "B4", "values": [
      {"measurement": "Km", "setting": "[4]; other: MVS/GG", "value": 14.5, "unit": "µM"}
    ]}
  ]
}
